In test [1] the target is T1, Streptococcus pneumoniae surface adhesin A (PsaA) protein (Streptococcus pneumoniae, UniProt P0A4G2 20-309).
T1 construct: also called Pneumococcal surface adhesin A; recombinant PsaA
T1 sequence: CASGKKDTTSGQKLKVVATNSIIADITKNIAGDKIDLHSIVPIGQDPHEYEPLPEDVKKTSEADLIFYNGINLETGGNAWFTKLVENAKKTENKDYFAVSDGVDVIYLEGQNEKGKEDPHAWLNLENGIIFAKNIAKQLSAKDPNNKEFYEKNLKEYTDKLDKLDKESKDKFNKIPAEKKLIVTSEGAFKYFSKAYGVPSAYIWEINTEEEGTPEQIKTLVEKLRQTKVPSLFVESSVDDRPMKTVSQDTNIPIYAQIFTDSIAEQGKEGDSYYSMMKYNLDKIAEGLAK
The test can be described thus: SPR (Biacore 3000), PsaA amine-coupled on CM5 chip, antibody in flow, 1:1 Langmuir fit. On the technique in general: In SPR one partner is held on a chip, and binding of the other changes the refractive index at the surface.

Test [2] addresses T1, Streptococcus pneumoniae surface …. Briefly: whole-bacteria ELISA, strain R6, Ab 0.5 µg/ml. (An ELISA detects its analyte on a solid surface through an enzyme-linked reagent.)
The target is the same in test [3]. The test can be described thus: whole-bacteria ELISA, strain 9V, Ab 0.5 µg/ml.
The target is the same in test [4]. The test can be described thus: whole-bacteria ELISA, strain 1, Ab 0.5 µg/ml.
Test [5] shares this target. Briefly: whole-bacteria ELISA, strain 7F, Ab 0.5 µg/ml.
Test [6] shares this target. Briefly: whole-bacteria ELISA, strain 8, Ab 0.5 µg/ml.
For test [7] the target is unchanged. Briefly: whole-bacteria ELISA, strain R6, Ab 5 ng/ml.
Test [8] shares this target. The test can be described thus: whole-bacteria ELISA, strain R6, Ab 0.5 ng/ml.
Test [9] shares this target. The test can be described thus: whole-bacteria ELISA, strain R6, Ab 50 ng/ml.
For test [10] the target is unchanged. The test can be described thus: whole-bacteria ELISA, strain 12F, Ab 0.5 µg/ml.
Test [11] has the same target. Briefly: whole-bacteria ELISA, strain 23F, Ab 0.5 µg/ml.
Test [12] has the same target. The test can be described thus: whole-bacteria ELISA, strain D39, Ab 0.5 µg/ml.
Test [13] shares this target. Briefly: whole-bacteria ELISA, strain 6B, Ab 0.5 µg/ml.
Test [14] shares this target. The test can be described thus: whole-bacteria ELISA, strain 4, Ab 0.5 µg/ml.
Test [15] has the same target. Briefly: whole-bacteria ELISA, strain 14, Ab 0.5 µg/ml.
The target is the same in test [16]. The test can be described thus: whole-bacteria ELISA, strain R6, Ab 5 µg/ml.
For test [17] the target is unchanged. The test can be described thus: whole-bacteria ELISA, strain 3, Ab 0.5 µg/ml.
For test [18], the target named is T2, fusion protein consisting of soluble CD64 linked to the Fc portion of human IgM (human, UniProt P12314 16-292; P01871 106-453, limits assumed).
T2 construct: Used as a culture supernatant; also called soluble CD64-IgM fusion protein
Briefly: bispecific sandwich ELISA: coated recombinant PsaA, detection with soluble CD64-IgM fusion and AP anti-human IgM.

T2 sequence (P12314 other isoform, or with tags, fused parts or gaps limits assumed): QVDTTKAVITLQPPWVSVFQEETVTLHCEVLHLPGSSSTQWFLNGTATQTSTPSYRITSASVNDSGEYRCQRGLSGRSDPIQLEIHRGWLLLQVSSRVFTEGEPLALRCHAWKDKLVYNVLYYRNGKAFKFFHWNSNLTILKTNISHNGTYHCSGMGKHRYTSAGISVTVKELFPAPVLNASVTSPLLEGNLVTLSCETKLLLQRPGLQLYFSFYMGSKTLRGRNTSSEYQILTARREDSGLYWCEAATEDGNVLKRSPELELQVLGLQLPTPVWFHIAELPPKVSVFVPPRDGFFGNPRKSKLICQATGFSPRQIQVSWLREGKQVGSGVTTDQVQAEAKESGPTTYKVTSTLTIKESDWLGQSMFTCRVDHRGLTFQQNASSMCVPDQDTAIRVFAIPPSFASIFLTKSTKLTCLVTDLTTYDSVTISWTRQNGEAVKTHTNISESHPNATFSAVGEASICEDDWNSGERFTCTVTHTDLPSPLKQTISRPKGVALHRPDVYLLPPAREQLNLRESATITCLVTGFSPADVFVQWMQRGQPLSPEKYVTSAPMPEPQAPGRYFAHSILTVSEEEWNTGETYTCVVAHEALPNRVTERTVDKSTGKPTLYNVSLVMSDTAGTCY

B1: Anti-PsaA 1-15E5 (antibody, V domains shown)
VH: EVQLVESGGGLVQPGGSLRLSCAASGFTFNIFGMSWVRQAPGKGLEWVANIKQDGSEKYYVDSVKGRFTISRDNAKNSLYLQMNSLRAEDTAVYYCARDRFYYGSGSYYYYYNGMDVWGQGTTVTVSS
VL: EIVLTQSPATLSLSPGERATLSCRASQSVSSYLAWYQQKPGQAPRLLIYDASNRATGIPARFSGSGSGTDFTLTISSLEPEDFAVYYCQQRSNWPLTFGGGTKVEI
notes: Fully human monoclonal antibody (HuMAb-Mouse), kappa light chain; also called clone 1-15E5.2.1; 1-1-15E5
As for B1, in test [1], the Kd (commonly a measure of binding affinity in units of concentration) came to 0.118 nM; the koff (in general, the rate constant with which the complex falls apart) amounted to 6.72e-06 s⁻¹; the kon – broadly, the rate constant with which the complex forms – amounted to 57100 M⁻¹ s⁻¹.

B2: Anti-PsaA 7-1G9 (antibody, V domains shown)
VH: QVRLQQWGAGLLKPSETLSLTCAVFGGSFSGFSWSWIRQTPGKGLEWIGEIDYRGSTNYNPSLKSRVTILRDTSRSQFSLKLSSVTAADSAVFYCARGGPRFDYWGQGTLVTVSS
VL: DIQMTQSPSSLSASVGDRVTITCRASQGISSWLAWYQQKPEKAPESLIYVASSLQSGVPSRFSGSGSGTDFTLTISSLQPEDFATYYCQQYNSYPPTFGQGTKVEIK
notes: Fully human monoclonal antibody (HuMAb-Mouse), kappa light chain; also called clone 7-1G9.1
Consider B2, for which the “ELISA (0.5 µg/ml) (corrected)” value in test [2] was 1.38; in test [3], over 3; in [4] it was 0.35; in test [5], 1.06; in test [6], 1.5; in test [10], 1.46. Further, the “ELISA (0.5 µg/ml) (corrected)” value in test [11] was 0.36; in test [12], 0.68; in [13], 0.4; in test [14], 0.33; in test [15] it was 1.32; in test [17], 1.24. In addition, the “R6 ELISA (corrected)” value in test [2] is 1.68; in [7], 0.54; in test [8] it was 0.31; in test [9], 1.78; in test [16], 1.36. In test [1], the Kd came to 0.0634 nM. This molecule returned a koff in [1] of 2.87e-05 s⁻¹. Moreover, the kon in test [1] worked out at 435000 M⁻¹ s⁻¹.

B3: Anti-PsaA 5-9A7 (antibody, V domains shown)
VH: EVQLVESGGGLVQPGGSLRLSCAASGFTFSSFWMSWVRQAPGKGLEWVANIKQDGSEKFYVDSVKGRFTISRDNAKNSLYLQMNSLRAEDTAVYYCARDRITMVRPYYYFYNGLDVWGQGTTVTVSS
VL: EIVLTQSPATLSLSPGERATLSCRASQSVSSYLAWYQQKPGQAPRLLIYDASNRATGIPARFSGSGSGTDFTLTISSLEPEDFAVYYCQQRSNWPPFTFGPGTKVDIK
notes: Fully human monoclonal antibody (HuMAb-Mouse), kappa light chain; also called clone 5-9A7
For B3, the “ELISA (0.5 µg/ml) (corrected)” value is 1.39 in [2]; over 3 in test [3]; 0.4 in test [4]; 1.17 in test [5]; 1.52 in test [6]; 1.51 in test [10]. Besides, the “ELISA (0.5 µg/ml) (corrected)” value turned out to be 0.37 in [11]; 0.66 in test [12]; 0.39 in [13]; 0.33 in [14]; 1.42 in [15]; 1.31 in test [17]. Also, the “R6 ELISA (corrected)” value in test [2] was 1.65; in test [7], 0.41; in test [8], 0.26; in test [9], 1.32; in [16] it was 1.39. The molecule also gave a Kd in [1] of 0.0374 nM. This molecule yielded a koff in test [1] of 1.41e-05 s⁻¹. This molecule also returned a kon in [1] of 377000 M⁻¹ s⁻¹.

B4: F(ab′)2 fragment of the anti-PsaA Ab 5-9A7 (other)
VH: EVQLVESGGGLVQPGGSLRLSCAASGFTFSSFWMSWVRQAPGKGLEWVANIKQDGSEKFYVDSVKGRFTISRDNAKNSLYLQMNSLRAEDTAVYYCARDRITMVRPYYYFYNGLDVWGQGTTVTVSS
VL: EIVLTQSPATLSLSPGERATLSCRASQSVSSYLAWYQQKPGQAPRLLIYDASNRATGIPARFSGSGSGTDFTLTISSLEPEDFAVYYCQQRSNWPPFTFGPGTKVDIK
notes: F(ab′)2 made by pepsin digestion; also called anti-PsaA F(ab′)2; 5-9A7 F(ab′)2
With B4, the binding result in test [18] was “no binding (tested: 1 µg/ml)”.
